*1 amine or outer side, *2 acyl side, *3 side chain or, on linkers, in order; H or OH if unused. Bridges are numbered along the chain shown (N, C = ends). Primed or numbered codes have the meaning given here. Where no end group is shown, it is not given here. [ ]: non-standard residue; d: D form. The star is where a group is joined. Phe(4-(2-(Boc)aminoethoxy)) = phenylalanine with 4-(2-(Boc-amino)ethoxy) on the ring, CC(C)(C)OC(=O)NCCOc1ccc(C[C@H](N[*:1])C(=O)[*:2])cc1; Phe(4-OMe)″ = 4-methoxyphenylalanine, COc1ccc(C[C@H](N[*:1])C(=O)[*:2])cc1; Phe(4-CONH2) = NC(=O)c1ccc(C[C@H](N)C(=O)O)cc1; Phe(3,5-F2) = N[C@@H](Cc1cc(F)cc(F)c1)C(=O)O; αMeW = C[C@](N)(Cc1c[nH]c2ccccc12)C(=O)O; FPrpTriazoleMe_Acid = not defined here; 2Nal = N[C@@H](Cc1ccc2ccccc2c1)C(=O)O; AEF = NCCOc1ccc(C[C@H](N)C(=O)O)cc1; αMeY = C[C@](N)(Cc1ccc(O)cc1)C(=O)O; Cyclopropanecarbonyl = O=C(C1CC1)*; αMeF = C[C@](N)(Cc1ccccc1)C(=O)O; αMeE = C[C@](N)(CCC(=O)O)C(=O)O; Pen = CC(C)(S)[C@H](N)C(=O)O; αMeK = C[C@](N)(CCCCN)C(=O)O; αMeC = C[C@](N)(CS)C(=O)O; Ac6c = NC1(C(=O)O)CCCCC1; Thp = NC1(C(=O)O)CCOCC1; Abu = CC[C@H](N)C(=O)O; pr = not defined here; Aib = CC(C)(N)C(=O)O; Piv = CC(C)(C)C(=O)*; Alloc = C=CCOC(=O)*; Butyryl = CCCC(=O)*; Propyl = CCC*
Target: T1, human IL-23R (interleukin-23 receptor) (human, UniProt Q5VWK5 24-629)
T1 sequence (looked up): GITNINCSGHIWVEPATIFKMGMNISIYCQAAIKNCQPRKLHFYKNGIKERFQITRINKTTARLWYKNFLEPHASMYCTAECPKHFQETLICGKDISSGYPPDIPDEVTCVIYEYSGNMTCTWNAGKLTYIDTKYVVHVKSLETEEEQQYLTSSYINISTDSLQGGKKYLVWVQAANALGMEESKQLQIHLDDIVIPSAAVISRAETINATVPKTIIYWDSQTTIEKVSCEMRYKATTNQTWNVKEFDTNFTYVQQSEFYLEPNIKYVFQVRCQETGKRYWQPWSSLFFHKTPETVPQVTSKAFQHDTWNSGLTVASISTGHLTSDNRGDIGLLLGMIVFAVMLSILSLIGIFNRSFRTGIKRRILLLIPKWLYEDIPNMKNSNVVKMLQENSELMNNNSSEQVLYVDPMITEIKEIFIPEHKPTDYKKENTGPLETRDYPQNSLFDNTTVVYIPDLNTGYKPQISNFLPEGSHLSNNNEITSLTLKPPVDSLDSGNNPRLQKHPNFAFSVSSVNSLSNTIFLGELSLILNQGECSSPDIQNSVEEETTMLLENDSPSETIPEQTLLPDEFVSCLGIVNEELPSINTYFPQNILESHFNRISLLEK
Experiment: cell-based or functional assay

Row | PBMC pSTAT3 IC50 (nM) | Binder
1 | 25 nM | Ac-[dR][Abu]QTWQC[AEF][2Nal][Thp][αMeE]N[2Nal]-NH2 (thioether 2-7) [Compound No. 35]
2 | 5.8 nM | Ac-[dR][Abu]QTWQC[AEF][2Nal][Thp][αMeE]N[Phe(4-CONH2)]-NH2 (thioether 2-7) [Compound No. 34]
3 | 2500 nM | Ac-[dR][Abu]QTWQC[Phe(3,4-diOMe)][2Nal][Thp][αMeE]N[αMeF]-NH2 (thioether 2-7) [Compound No. 41]
4 | 19 nM | Ac-[dR][Abu]QTWQC[AEF][2Nal][Thp][αMeE]N[1(2Nal)]-NH2 (thioether 2-7) [Compound No. 32]
5 | 9.3 nM | Ac-[dR][Abu]QTWQC[AEF][2Nal][Thp][αMeE]N[αMeY]-NH2 (thioether 2-7) [Compound No. 44]
6 | 11 nM | Propyl-[dR][Pen]QTWQ[Pen][AEF][2Nal][Thp]K(Alloc)NF-NH2 (disulfide 2-7; SMILES C=CCOC(=O)NCCCC[C@H](NC(=O)C1(NC(=O)[C@H](Cc2ccc3ccccc3c2)NC(=O)[C@H](Cc2ccc(OCCN)cc2)NC(=O)[C@H]2NC(=O)[C@H](CCC(N)=O)NC(=O)[C@H](Cc3c[nH]c4ccccc34)NC(=O)[C@H]([C@@H](C)O)NC(=O)[C@H](CCC(N)=O)NC(=O)[C@@H](NC(=O)[C@@H](CCCNC(=N)N)NCCC)C(C)(C)SSC2(C)C)CCOCC1)C(=O)N[C@@H](CC(N)=O)C(=O)N[C@@H](Cc1ccccc1)C(N)=O) [Compound No. 33]
7 | 21 nM | [dR][Abu]QTWQC[Phe(4-OMe)″][2Nal][Thp]EN[Thp]-NH2 (thioether 2-7; not fully specified (N-terminus)) [Compound No. 21]
8 | 18 nM | Ac-[dR][Abu]QTWQC[AEF][2Nal][Thp][Aib]NF-NH2 (thioether 2-7) [Compound No. 49]
9 | 4.3 nM | Ac-[dR][Abu]QTWQC[AEF][2Nal][Ac6c][αMeE]N[Thp]-NH2 (thioether 2-7) [Compound No. 38]
10 | 21 nM | FPrpTriazoleMe_Acid-[dR][Abu]QTWQC[Phe(4-OMe)″][2Nal][Thp]EN[Thp]-NH2 (thioether 2-7; reading uncertain) [Compound No. 25]
11 | 11 nM | Ac-[dR][Abu]QTWQC[AEF][2Nal][Thp][αMeE]N[Thp]-NH2 (thioether 2-7) [Compound No. 37]
12 | 8.2 nM | pr-[dR][Pen]QTWQ[Pen][AEF][2Nal][Thp]K(Piv)NF-NH2 (disulfide 2-7; reading uncertain) [Compound No. 26]
13 | 14 nM | Ac-[dR][Abu]QTWQC[AEF][2Nal][Thp][Ac6c]N[αMeF]-NH2 (thioether 2-7) [Compound No. 50]
14 | 16 nM | Ac-[dR][Pen]QTWQ[Pen][AEF][2Nal][Thp]K(Butyryl)N[Thp]-NH2 (disulfide 2-7; SMILES CCCC(=O)NCCCC[C@H](NC(=O)C1(NC(=O)[C@H](Cc2ccc3ccccc3c2)NC(=O)[C@H](Cc2ccc(OCCN)cc2)NC(=O)[C@H]2NC(=O)[C@H](CCC(N)=O)NC(=O)[C@H](Cc3c[nH]c4ccccc34)NC(=O)[C@H]([C@@H](C)O)NC(=O)[C@H](CCC(N)=O)NC(=O)[C@@H](NC(=O)[C@@H](CCCNC(=N)N)NC(C)=O)C(C)(C)SSC2(C)C)CCOCC1)C(=O)N[C@@H](CC(N)=O)C(=O)NC1(C(N)=O)CCOCC1) [Compound No. 52]
15 | 92 nM | Ac-[dR][Abu]QTWQ[Pen][AEF][2Nal][Ac6c][αMeE]N[Thp]-NH2 (thioether 2-7) [Compound No. 39]

Continued, binder first:

Row | Binder | PBMC pSTAT3 IC50 (nM)
16 | Propyl-[dR][Abu]QTWQ[αMeC][AEF][2Nal][Thp]ENF-NH2 (thioether 2-7) [Compound No. 48] | 7.2 nM
17 | Ac-[dR]CQTWQ[Pen][AEF][2Nal][Ac6c][αMeE]N[αMeF]-NH2 (disulfide 2-7; SMILES CC(=O)N[C@H](CCCNC(=N)N)C(=O)N[C@H]1CSSC(C)(C)[C@@H](C(=O)N[C@@H](Cc2ccc(OCCN)cc2)C(=O)N[C@@H](Cc2ccc3ccccc3c2)C(=O)NC2(C(=O)N[C@@](C)(CCC(=O)O)C(=O)N[C@@H](CC(N)=O)C(=O)N[C@@](C)(Cc3ccccc3)C(N)=O)CCCCC2)NC(=O)[C@H](CCC(N)=O)NC(=O)[C@H](Cc2c[nH]c3ccccc23)NC(=O)[C@H]([C@@H](C)O)NC(=O)[C@H](CCC(N)=O)NC1=O) [Compound No. 40] | 220 nM
18 | Ac-[dR][Abu]QTWQC[AEF][2Nal][Thp][αMeE]N[αMeW]-NH2 (thioether 2-7) [Compound No. 31] | 16 nM
19 | [dR][Abu]QTWQC[Phe(4-OMe)″][2Nal][Thp]EN[Thp]-NH2 (thioether 2-7) [Compound No. 22] | 22 nM
20 | [dR]CQTWQ[Pen][AEF][2Nal][Thp]EN[αMeF]-NH2 (disulfide 2-7; not fully specified (N-terminus)) [Compound No. 23] | 17 nM
21 | Ac-[dR][Pen]QTWQ[Pen][AEF][2Nal][Thp]K(Cyclopropanecarbonyl)N[Thp]-NH2 (disulfide 2-7; SMILES CC(=O)N[C@H](CCCNC(=N)N)C(=O)N[C@@H]1C(=O)N[C@@H](CCC(N)=O)C(=O)N[C@@H]([C@@H](C)O)C(=O)N[C@@H](Cc2c[nH]c3ccccc23)C(=O)N[C@@H](CCC(N)=O)C(=O)N[C@H](C(=O)N[C@@H](Cc2ccc(OCCN)cc2)C(=O)N[C@@H](Cc2ccc3ccccc3c2)C(=O)NC2(C(=O)N[C@@H](CCCCNC(=O)C3CC3)C(=O)N[C@@H](CC(N)=O)C(=O)NC3(C(N)=O)CCOCC3)CCOCC2)C(C)(C)SSC1(C)C) [Compound No. 51] | 27 nM
22 | Ac-[dR][Abu]QTWQC[AEF][2Nal][Ac6c][αMeE]N[αMeF]-NH2 (thioether 2-7) [Compound No. 29] | 30 nM
23 | Ac-[dR][Abu]QTWQC[AEF][2Nal][Thp][αMeE]N[Phe(3,5-F2)]-NH2 (thioether 2-7) [Compound No. 46] | 48 nM
24 | [dR][Abu]QTWQC[Phe(4-(2-(Boc)aminoethoxy))][2Nal][Thp]EN[Thp]-NH2 (thioether 2-7) [Compound No. 47] | 5.3 nM
25 | Ac-[dR][Abu]QTWQC[AEF][2Nal][Thp][αMeE]NF[Aib][αMeK]-NH2 (thioether 2-7) [Compound No. 43] | 8.2 nM
26 | Ac-[dR][Abu]QTWQC[AEF][2Nal][Ac6c][αMeE]NF-NH2 (thioether 2-7) [Compound No. 27] | 11 nM
27 | Ac-[dR][Abu]QTWQC[AEF][2Nal][Ac6c]EN[Thp]-NH2 (thioether 2-7) [Compound No. 42] | 6.7 nM
28 | Ac-[dR][Abu]QTWQC[AEF][2Nal][Ac6c][αMeE]NF[Aib]-NH2 (thioether 2-7) [Compound No. 28] | 23 nM
29 | Ac-[dR][Abu]QTWQC[AEF][2Nal][Thp]QN[αMeF]-NH2 (thioether 2-7) [Compound No. 30] | 25 nM
30 | Ac-[dR][Abu]QTWQC[AEF][2Nal][Ac6c][αMeE]NF[Aib][αMeK]-NH2 (thioether 2-7) [Compound No. 45] | 17 nM
31 | Ac-[dR][Abu]QTWQC[AEF][2Nal][Thp][αMeE]N[αMePhe(4-F)]-NH2 (thioether 2-7) [Compound No. 36] | 14 nM

From patent publication US20220402983A1 (Janssen / Centocor, published 2022)
